Results reported in patent US20260139017A1, “COMPOSITIONS AND METHODS USING REELIN IN ALZHEIMER'S DISEASE” (The General Hospital Corporation, priority 2022, published 2026).
pKd: −log10 of the molar value.

Target: Neuropilin 1 (NRP1), R&D 3870-N1-025 (UniProt O14786)
Assay: BLI (Octet), biotinylated NRP1 on SA biosensor, 1:1 global fit

Chain of Neuropilin 1 (NRP1), R&D 3870-N1-025 (O14786 other isoform, or with tags, fused parts or gaps limits assumed): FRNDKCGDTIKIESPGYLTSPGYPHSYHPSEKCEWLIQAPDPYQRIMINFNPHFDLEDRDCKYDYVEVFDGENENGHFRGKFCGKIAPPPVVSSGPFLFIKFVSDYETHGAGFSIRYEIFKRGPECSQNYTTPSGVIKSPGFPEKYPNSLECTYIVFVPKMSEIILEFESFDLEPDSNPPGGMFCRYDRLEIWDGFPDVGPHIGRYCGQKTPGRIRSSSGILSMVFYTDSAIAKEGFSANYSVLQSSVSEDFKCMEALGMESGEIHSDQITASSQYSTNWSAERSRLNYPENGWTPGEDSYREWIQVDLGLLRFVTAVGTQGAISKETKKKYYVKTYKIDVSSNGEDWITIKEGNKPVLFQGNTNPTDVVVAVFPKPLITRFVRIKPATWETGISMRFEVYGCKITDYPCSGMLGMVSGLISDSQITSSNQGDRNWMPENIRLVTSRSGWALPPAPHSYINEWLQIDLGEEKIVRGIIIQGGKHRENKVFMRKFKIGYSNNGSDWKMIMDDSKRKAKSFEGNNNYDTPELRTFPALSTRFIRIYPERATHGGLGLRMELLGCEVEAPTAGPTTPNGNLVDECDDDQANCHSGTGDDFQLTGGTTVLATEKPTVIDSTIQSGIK

## Vascular endothelial growth factor (VEGF) (ligand)
  pKd: 8.26
  koff: 0.0015 s⁻¹
  kon: 272000 M⁻¹ s⁻¹
